Test [1] has as its target phosphorylated Smad2 (His-tagged, full length, from Sf9 cells co-infected with Alk5 T204D virus) (UniProt Q15796). Kind of test: HTRF competition, biotin-FAST on Smad2-P, inhibitor at 20 µM.
Test [2] shares this target. Kind of test: HTRF competition, biotin-FAST on Smad2-P, inhibitor at 50 µM. Background: In TR-FRET formats the signal depends on donor and acceptor labels being close together.
Test [3] addresses T1, Smad2-P (Homo sapiens, UniProt Q15796).
T1 construct: Smad2; 1–467; pBlueBac; His; made in house; host or cells: Sf9 insect cells (baculovirus), co-infected with virus for membrane-targeted human Alk5 T204D
Kind of test: HTRF assay of biotin-FAST peptide binding to Smad2-P (competition). To be noted: for Average Normalized Counts / Percent of Control (minus Background): Biotin-FAST binding to Smad2-P. From the text:
To establish HTRF assays for Smad protein interactions, we have used reagents from Wallac-Perkin Elmer and Packard that include Europium-cryptate coupled to α-His epitope tag antibody, α-GST antibody or Streptavidin. As acceptor fluorophores we have used allophycocyanin (Packard's XL665) coupled to Streptavidin or direct labeling of GST-fusion protein with IC5 (Dojindo). Reagents are mixed in a 50 microliter volume in the wells of a 384 Black non-treated microwell plate (Corning) and HTRF detected in a Wallac Victor V multimode plate reader. The reader detects emission at 615 nm from the Europium chelate donor and at 665 nm from the APC or IC5 acceptor. Background, cross-talk and high FRET wells can be indicated on the plate map to allow the machine to compute a normalized value as a ratio Rn=(ET/D) Dmax where ET=A−BI−(C×D). • A—Fluorescence at 665 nm • BI—Blank (buffer only) at 665 nm • D—Fluorescence at 615 nm • C—Cross-talk correction value calculated from wells containing only donor fluorophore • (from “Quench Correction for LANCE TR-FRET” by Perkin-Elmer Wallace)
Over the past several months we have developed three HTRF assays for Smad binding interactions. All three assays use a Eu-chelate α-His epitope tag antibody as the donor. The antibody recognizes the hexahistidine epitope tag on the Smad proteins produced in the baculovirus expression system described above. As acceptors, we have used Streptavidin conjugated to allophycocyanin (Packard) that binds to biotinylated peptides. The peptides are synthesized to comprise the Smad interaction domain motif from human FAST or c-Jun (FIG. 3). The FAST 24-mer amino acid sequence is based on the homology between FAST, Mixer and Milk reported by Germain and colleagues (Germain, S., et al., supra, 2000). The24-mer C-JUN sequence is based on studies using deletions and gene fragments to define the Smad interaction motif (Zhang, Y., et al., supra, 1998; Liberati, N. T. et al., Proc. Natl. Acad. Sci. USA 96:4844–9, 1999). We also have developed an HTRF assay using IC5-GST-CBP, a fusion protein comprising the Smad interaction domain motif from CBP (a generous gift of Dr. Yigong Shi, Princeton University).
The assays are done in a 50 μl volume in the well of a 384-well plate. The assay buffer, as recommended by Packard for their HTRF reagents is 50 mM K-Hepes pH 7.0, 400 mM KF and 0.1% BSA. The high concentration of KF is recommended for the Eu(K) reagents from Packard. […] We have also optimized through many titrations the amount of Smad protein (220 ng/well, ˜4 pmoles per well of monomer), the concentration of biotinylated peptide (1 uMolar for FAST and C-JUN), the amount of Eu-anti-His tag antibody (36 ng/well) and the amount of Streptactin-APC (0.5 μg/well).
We used the FAST-SmadP HTRF assay described above. […] After 1 hr at room temperature, Streptavidin-APC was added to each well and 30 minutes later the fluorescence emissions at 615 nm and 665 nm were read in a PE-Wallac Victor V.

Test [4] addresses T2, Smad3-P (Homo sapiens, UniProt P84022).
T2 construct: Smad3; 1–425; pBlueBac; His; made in house; host or cells: Sf9 insect cells (baculovirus), co-infected with virus for human Alk5 T204D
The experiment in a line: HTRF assay of FAST / Jun Smad interaction motif peptide binding to Smad3-P.
Description: The HTRF assay for detecting Smad protein interactions was used to quantify binding between the FAST Smad interaction motif and purified Smad 3 (phosphorylated). The indicated amounts of peptide or peptide aptamer were added as competitive inhibitors.
All three assays use a Eu-chelate α-His epitope tag antibody as the donor. The antibody recognizes the hexahistidine epitope tag on the Smad proteins produced in the baculovirus expression system described above. […] The peptides are synthesized to comprise the Smad interaction domain motif from human FAST or c-Jun (FIG. 3).

Test [5] addresses phosphorylated Smad2 (His-tagged, full length, from Sf9 cells co-infected with Alk5 T204D virus) (UniProt Q15796). The experiment in a line: HTRF competition, biotin-FAST on Smad2-P, inhibitor at 40 µM.
The target of test [6] is IC5-labelled GST-CBP fusion protein [GST: P08515]. The experiment in a line: HTRF, Eu-anti-GST donor plus GST-CBP-IC5 acceptor, well B08.
The target is the same in test [7]. Kind of test: HTRF, Eu-anti-GST donor plus GST-CBP-IC5 acceptor, well B07.
Test [8] concerns the target unphosphorylated Smad2 (His-tagged, full length) (UniProt Q15796). Kind of test: HTRF, well D11 Smad2 (No Smad well: 260).
The target in test [9] is Smad4 (Strep-tagged, full length) (UniProt Q13485). The experiment in a line: HTRF, well D17 Smad4.
The target in test [10] is unphosphorylated Smad2 (His-tagged, full length) (UniProt Q15796). Kind of test: HTRF, well D14 Smad2.
For test [11], the target named is phosphorylated Smad3 (His-tagged, full length) (UniProt P84022). The experiment in a line: HTRF, well D16 Smad3P.
Test [12] has as its target phosphorylated Smad2 (His-tagged, full length, from Sf9 cells co-infected with Alk5 T204D virus) (UniProt Q15796). Kind of test: HTRF, well D06 Smad2P with unlabelled GST-CBP competitor added after equilibrium.
The target is the same in test [13]. The experiment in a line: HTRF, well D05 Smad2P.
The target of test [14] is phosphorylated Smad3 (His-tagged, full length) (UniProt P84022). Kind of test: HTRF, well D15 Smad3P.
The target in test [15] is Smad4 (Strep-tagged, full length) (UniProt Q13485). Kind of test: HTRF, well D20 Smad4.
The target of test [16] is unphosphorylated Smad2 (His-tagged, full length) (UniProt Q15796). Kind of test: HTRF, well D12 Smad2.
The target of test [17] is phosphorylated Smad2 (His-tagged, full length, from Sf9 cells co-infected with Alk5 T204D virus) (UniProt Q15796). Kind of test: HTRF, well D09 Smad2P.
For test [18], the target named is unphosphorylated Smad2 (His-tagged, full length) (UniProt Q15796). Kind of test: HTRF, well D13 Smad2.
Test [19] addresses phosphorylated Smad2 (His-tagged, full length, from Sf9 cells co-infected with Alk5 T204D virus) (UniProt Q15796). The experiment in a line: HTRF, IC5-GST-CBP binding to Smad2-P, no inhibitor.
The target in test [20] is Smad4 (Strep-tagged, full length) (UniProt Q13485). The experiment in a line: HTRF, well D18 Smad4.
Test [21] shares this target. The experiment in a line: HTRF, well D19 Smad4.
Test [22] addresses phosphorylated Smad2 (His-tagged, full length, from Sf9 cells co-infected with Alk5 T204D virus) (UniProt Q15796). The experiment in a line: HTRF, well D10 Smad2P with unlabelled GST-CBP competitor added after equilibrium.
Test [23] has the same target. The experiment in a line: HTRF competition against biotinylated FAST peptide.

No end group written: not given here.

Smad4 (Strep-tagged, full length), sequence (Q13485 whole entry): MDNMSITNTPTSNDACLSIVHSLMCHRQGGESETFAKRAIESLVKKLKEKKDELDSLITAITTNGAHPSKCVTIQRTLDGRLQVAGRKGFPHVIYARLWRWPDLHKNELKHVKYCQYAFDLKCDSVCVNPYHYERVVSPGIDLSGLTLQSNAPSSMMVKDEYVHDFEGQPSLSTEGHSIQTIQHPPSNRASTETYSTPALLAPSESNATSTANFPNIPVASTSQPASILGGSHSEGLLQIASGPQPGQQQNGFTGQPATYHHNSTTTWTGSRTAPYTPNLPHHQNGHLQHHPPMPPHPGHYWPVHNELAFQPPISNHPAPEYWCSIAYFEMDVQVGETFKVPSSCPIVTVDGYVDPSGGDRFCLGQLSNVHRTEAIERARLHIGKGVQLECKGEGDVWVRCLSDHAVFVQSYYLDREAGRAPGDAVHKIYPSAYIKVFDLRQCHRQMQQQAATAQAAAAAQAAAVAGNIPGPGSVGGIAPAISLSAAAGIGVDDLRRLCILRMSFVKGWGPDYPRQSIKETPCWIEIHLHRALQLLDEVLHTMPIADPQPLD
phosphorylated Smad3 (His-tagged, full length), sequence (P84022 whole entry): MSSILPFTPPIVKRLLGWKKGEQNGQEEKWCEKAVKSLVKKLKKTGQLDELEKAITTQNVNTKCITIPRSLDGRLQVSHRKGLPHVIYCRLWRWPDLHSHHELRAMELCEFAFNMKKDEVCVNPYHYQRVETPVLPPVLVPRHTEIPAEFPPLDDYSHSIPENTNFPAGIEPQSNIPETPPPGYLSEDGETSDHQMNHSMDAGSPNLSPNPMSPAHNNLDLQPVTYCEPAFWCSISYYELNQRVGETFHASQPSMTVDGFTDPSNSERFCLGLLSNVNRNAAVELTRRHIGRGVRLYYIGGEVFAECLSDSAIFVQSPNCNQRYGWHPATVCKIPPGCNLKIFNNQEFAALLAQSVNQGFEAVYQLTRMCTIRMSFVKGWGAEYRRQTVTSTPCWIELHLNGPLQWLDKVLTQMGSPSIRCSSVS

Regarding “hFAST-24mer PP>AA peptide (from UniProt O75593 327-350)”, the Average Normalized Counts in [1] was determined as 1920 counts; in [2] it was 1860 counts.

As to “GST-trx: 35 kd GST-trx fusion protein, scaffold without SIM insert [reference compound]”, the “effect on binding (in words)” value in [3] (8 μg/50 ul) is “very little effect”. Also, the “competitive inhibition of FAST Smad interaction motif binding to Smad 3 (phosphorylated) (in words)” value in test [4] is reported as “did not interfere with binding”.

As for “cJUN-24mer peptide (unlabelled) (from UniProt P05412 308-331)”, in test [1], the Average Normalized Counts worked out at 1980 counts and the Percent of Control (minus Background) was determined as 106%. In [5], this substance gave an Average Normalized Counts of 1960 counts and a Percent of Control (minus Background) of 105%.

For “hFAST-13mer peptide (from UniProt O75593 331-343)”, in [1], the Average Normalized Counts was found to be 2020 counts and the Percent of Control (minus Background) came out at 108%. In test [2], this substance displayed an Average Normalized Counts of 1980 counts and a Percent of Control (minus Background) of 106%.

On to “JUN 24 mer: 24-mer peptide of the Smad interaction motif from c-Jun (LKQKVMNHVNSGCQLMLTQQLQTF)”, for which the “competition for Biotin-FAST binding to Smad-2P (in words)” value in test [3] is “inability”. Further, the “Average Normalized Counts” value in test [3] (20 μM inhibitor peptide) is given as 1984; in test [3] (40 μM inhibitor peptide), 1964. In addition, the “Percent of Control (minus Background)” value in [3] (20 μM inhibitor peptide) is 106%; in test [3] (40 μM inhibitor peptide), 105%.

Turning to “Europium-cryptate αGST antibody (Packard)”, in test [6], the Emission 665 was 9450 counts and the Normalized Counts came to 9110 counts. In addition, in [7], the Emission 665 came to 5170 counts and the Normalized Counts worked out at 6800 counts.

For “IC5-labelled GST-CBP fusion protein (from UniProt P08515 1-218)”, the Normalized Counts in test [8] came to 334 counts; in test [9] it was 149 counts; in [10] it was 327 counts; in test [11], 683 counts; in test [12], 322 counts; in test [13], 593 counts. Besides, the Normalized Counts in [14] is 665 counts; in test [15], 150 counts; in test [16], 315 counts; in test [17], 617 counts; in test [18], 311 counts; in test [20], 206 counts. The Normalized Counts amounted to 252 counts in test [21] and 353 counts in test [22]. Besides, the Average Normalized Counts in [19] is 751 counts. In test [19], this substance returned a Percent of Control (minus Background) of 100%.

Take “C-JUN: biotinylated 24-mer c-Jun Smad interaction motif peptide, HTRF ligand (LKQKVMNHVNSGCQLMLTQQLQTF; also: biotinylated, site not given here)”: the “time for binding reaction to reach equilibrium” value in test [4] (1 μM biotinylated peptide) is reported as “about 90 minutes”.

As to “GST-trx-FAST aptamer with two amino acids deleted from the N-terminus of the FAST SIM (from UniProt O75593 329-350) (designed binder)”, the fold higher IC50 than GST-trx-FAST in test [23] stood at 10 fold.

In test [23], “GST-trx-FAST aptamer with two amino acids deleted from the C-terminus of the FAST SIM (from UniProt O75593 327-348) (designed binder)” returned a fold higher IC50 than GST-trx-FAST of 10 fold.
